The target in this test is Caspase-8 (endogenous, in melanocytes and melanoma cells) (human) (UniProt Q14790). As to the kind of experiment: cell-based or functional assay.
Chain of Caspase-8 (endogenous, in melanocytes and melanoma cells) (human) (Q14790 whole entry): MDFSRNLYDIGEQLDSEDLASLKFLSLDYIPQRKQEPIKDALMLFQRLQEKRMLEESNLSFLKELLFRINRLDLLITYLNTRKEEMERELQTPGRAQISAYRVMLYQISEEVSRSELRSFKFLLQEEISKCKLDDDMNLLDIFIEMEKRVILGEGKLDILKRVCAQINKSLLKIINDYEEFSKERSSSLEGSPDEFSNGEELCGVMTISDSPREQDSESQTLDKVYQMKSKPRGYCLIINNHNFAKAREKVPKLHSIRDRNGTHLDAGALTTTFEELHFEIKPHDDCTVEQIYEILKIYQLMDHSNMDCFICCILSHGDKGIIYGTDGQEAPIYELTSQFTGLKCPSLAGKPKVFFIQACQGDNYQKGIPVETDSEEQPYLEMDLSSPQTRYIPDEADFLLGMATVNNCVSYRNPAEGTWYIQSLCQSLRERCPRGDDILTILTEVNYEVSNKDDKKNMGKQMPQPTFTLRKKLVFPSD

On to “Cell permeable caspase inhibitor containing the sequence DEVD (from UniProt P08620 7-22) (peptide)”, for which the Concentration needed to block ET-1 induced E-cadherin down-regulation, relative to the 'IETD' inhibitor was determined as 10 fold.

For the origin of these results see US8597645.
